The values below come from publication PMC8165985.

The data set concerns the target T1, YycF (Staphylococcus aureus (ATCC29213?)) (UniProt Q9RDT5).
T1 sequence: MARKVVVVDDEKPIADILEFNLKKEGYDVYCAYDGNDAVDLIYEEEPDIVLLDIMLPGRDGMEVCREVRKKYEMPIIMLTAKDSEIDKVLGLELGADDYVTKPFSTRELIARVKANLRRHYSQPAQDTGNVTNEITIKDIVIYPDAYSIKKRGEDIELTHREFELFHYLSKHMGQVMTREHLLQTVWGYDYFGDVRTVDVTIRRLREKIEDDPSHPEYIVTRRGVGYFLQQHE
Description: EMSA. For orientation: In EMSA bound probe runs differently from free probe, usually more slowly.

For the sequence “CTGAAAATTAATCACACTATGTTACAGGAAAATTAAGTTGCAATTACAAATATTTCCGTTTAATTATAACAACAATCTATTGCAAATTAAAATACTATCAATTACCATATGGCTTACAACCTAACTAACGAAAGGTAGGTAAAG (double strand) [icaA promoter region]”, the binding result is listed as “binds”.

As to “GCGCAATTTGGTGAAGTTTGATAGATGATACATTCTATTAAACTTCCTTTTTTTATGTCTTTTTTTACCTAATTGTTAAGAGGTTTTGCACTAATGGCACTTAATATAAGGAAGATAGCCGCATAACGAGCAGTATATATCAAATACATTTCAAAAAAAGCTGATTTCTATCAAATAATGAATAGTAATCAGCTTTTTCACATTGCCTAAGGACTTTATGCCCTAGGTTTATATATCAC (double strand) [sarA promoter region]”, the binding result is given as “binds”.
